T1: β-TrCP, endogenous, Q9Y297
T1 chain: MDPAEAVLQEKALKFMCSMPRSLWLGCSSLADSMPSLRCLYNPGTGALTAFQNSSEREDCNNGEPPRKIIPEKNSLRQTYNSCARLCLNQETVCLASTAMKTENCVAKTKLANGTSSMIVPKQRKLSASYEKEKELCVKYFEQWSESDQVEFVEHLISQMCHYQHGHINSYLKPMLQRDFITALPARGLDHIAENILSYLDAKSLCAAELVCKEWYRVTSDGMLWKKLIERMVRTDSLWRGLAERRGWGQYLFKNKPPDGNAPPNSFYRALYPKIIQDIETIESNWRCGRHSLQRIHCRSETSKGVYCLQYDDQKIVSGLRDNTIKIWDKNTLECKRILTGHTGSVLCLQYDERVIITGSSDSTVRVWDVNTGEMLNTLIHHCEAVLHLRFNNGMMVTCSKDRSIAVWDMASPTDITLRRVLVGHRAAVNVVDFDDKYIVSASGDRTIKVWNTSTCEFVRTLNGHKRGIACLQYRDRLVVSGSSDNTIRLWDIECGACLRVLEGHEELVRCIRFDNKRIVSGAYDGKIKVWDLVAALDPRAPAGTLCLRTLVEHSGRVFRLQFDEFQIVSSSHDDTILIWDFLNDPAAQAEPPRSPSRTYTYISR


Biological target: T1, β-TrCP, endogenous, Q9Y297
Test: co-immunoprecipitation (IP against Flag tag, Western blot quantification)
Details: chain shown with the change; HEK293T cells, 48 h overexpression, N = 3; parent: est. 1.0; read off a plot

Binder	ratio to parent
Flag-PLK4 wt (polo-like kinase 4), full-length, O00444 K41R (protein) MATCIGEKIEDFKVGNLLGKGSFAGVYRAESIHTGLEVAIRMIDKKAMYKAGMVQRVQNEVKIHCQLKHPSILELYNYFEDSNYVYLVLEMCHNGEMNRYLKNRVKPFSENEARHFMHQIITGMLYLHSHGILHRDLTLSNLLLTRNMNIKIADFGLATQLKMPHEKHYTLCGTPNYISPEIATRSAHGLESDVWSLGCMFYTLLIGRPPFDTDTVKNTLNKVVLADYEMPSFLSIEAKDLIHQLLRRNPADRLSLSSVLDHPFMSRNSSTKSKDLGTVEDSIDSGHATISTAITASSSTSISGSLFDKRRLLIGQPLPNKMTVFPKNKSSTDFSSSGDGNSFYTQWGNQETSNSGRGRVIQDAEERPHSRYLRRAYSSDRSGTSNSQSQAKTYTMERCHSAEMLSVSKRSGGGENEERYSPTDNNANIFNFFKEKTSSSSGSFERPDNNQALSNHLCPGKTPFPFADPTPQTETVQQWFGNLQINAHLRKTTEYDSISPNRDFQGHPDLQKDTSKNAWTDTKVKKNSDASDNAHSVKQQNTMKYMTALHSKPEIIQQECVFGSDPLSEQSKTRGMEPPWGYQNRTLRSITSPLVAHRLKPIRQKTKKAVVSILDSEEVCVELVKEYASQEYVKEVLQISSDGNTITIYYPNGGRGFPLADRPPSPTDNISRYSFDNLPEKYWRKYQYASRFVQLVRSKSPKITYFTRYAKCILMENSPGADFEVWFYDGVKIHKTEDFIQVIEKTGKSYTLKSESEVNSLKEEIKMYMDHANEGHRICLALESIISEEERKTRSAPFFPIIIGRKPGSTSSPKALSPPPSVDSNYPTRERASFNRMVMHSAASPTQAPILNPSMVTNEGLGLTTTASGTDISSNSLKDCLPKSAQLLKSVFVKNVGWATQLTSGAVWVQFNDGSQLVVQAGVSSISYTSPNGQTTRYGENEKLPDYIKQKLQCLSSILLMFSNPTPNFH	0.07
Flag-PLK4 wt (polo-like kinase 4), full-length, O00444 S285A; T289A (protein) MATCIGEKIEDFKVGNLLGKGSFAGVYRAESIHTGLEVAIKMIDKKAMYKAGMVQRVQNEVKIHCQLKHPSILELYNYFEDSNYVYLVLEMCHNGEMNRYLKNRVKPFSENEARHFMHQIITGMLYLHSHGILHRDLTLSNLLLTRNMNIKIADFGLATQLKMPHEKHYTLCGTPNYISPEIATRSAHGLESDVWSLGCMFYTLLIGRPPFDTDTVKNTLNKVVLADYEMPSFLSIEAKDLIHQLLRRNPADRLSLSSVLDHPFMSRNSSTKSKDLGTVEDSIDAGHAAISTAITASSSTSISGSLFDKRRLLIGQPLPNKMTVFPKNKSSTDFSSSGDGNSFYTQWGNQETSNSGRGRVIQDAEERPHSRYLRRAYSSDRSGTSNSQSQAKTYTMERCHSAEMLSVSKRSGGGENEERYSPTDNNANIFNFFKEKTSSSSGSFERPDNNQALSNHLCPGKTPFPFADPTPQTETVQQWFGNLQINAHLRKTTEYDSISPNRDFQGHPDLQKDTSKNAWTDTKVKKNSDASDNAHSVKQQNTMKYMTALHSKPEIIQQECVFGSDPLSEQSKTRGMEPPWGYQNRTLRSITSPLVAHRLKPIRQKTKKAVVSILDSEEVCVELVKEYASQEYVKEVLQISSDGNTITIYYPNGGRGFPLADRPPSPTDNISRYSFDNLPEKYWRKYQYASRFVQLVRSKSPKITYFTRYAKCILMENSPGADFEVWFYDGVKIHKTEDFIQVIEKTGKSYTLKSESEVNSLKEEIKMYMDHANEGHRICLALESIISEEERKTRSAPFFPIIIGRKPGSTSSPKALSPPPSVDSNYPTRERASFNRMVMHSAASPTQAPILNPSMVTNEGLGLTTTASGTDISSNSLKDCLPKSAQLLKSVFVKNVGWATQLTSGAVWVQFNDGSQLVVQAGVSSISYTSPNGQTTRYGENEKLPDYIKQKLQCLSSILLMFSNPTPNFH	0.03

Source: PMC10942865
